Non-standard residues stand in square brackets, D forms with d. No end group written: not given here.
Target: T1, PTHR-1 (species and cells not stated for the assay) (Homo sapiens (Human), UniProt Q03431 27-593)
T1 sequence: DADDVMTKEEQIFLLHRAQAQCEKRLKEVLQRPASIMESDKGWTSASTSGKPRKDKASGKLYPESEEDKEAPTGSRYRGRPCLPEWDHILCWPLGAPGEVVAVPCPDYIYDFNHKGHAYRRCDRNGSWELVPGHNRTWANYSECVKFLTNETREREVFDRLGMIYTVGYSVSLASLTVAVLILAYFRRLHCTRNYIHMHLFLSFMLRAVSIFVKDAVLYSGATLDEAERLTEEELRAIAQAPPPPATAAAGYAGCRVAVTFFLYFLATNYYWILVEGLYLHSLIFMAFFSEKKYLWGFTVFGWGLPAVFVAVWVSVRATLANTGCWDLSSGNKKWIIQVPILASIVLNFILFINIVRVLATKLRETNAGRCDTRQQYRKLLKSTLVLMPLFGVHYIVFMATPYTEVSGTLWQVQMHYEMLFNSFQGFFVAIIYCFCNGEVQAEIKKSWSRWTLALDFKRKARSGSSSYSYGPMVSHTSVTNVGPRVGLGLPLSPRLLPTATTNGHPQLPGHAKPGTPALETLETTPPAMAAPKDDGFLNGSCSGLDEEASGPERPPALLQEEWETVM
Experiment: cell-based or functional assay

B1: bPTH(7-34)dTrp12 (peptide)
peptide: FMHNL[dW]KHLSSMERVEWLRKKLQDVHNF-NH2
modifications: N-terminus assumed
SMILES: CSCC[C@H](NC(=O)[C@H](CO)NC(=O)[C@H](CO)NC(=O)[C@H](CC(C)C)NC(=O)[C@H](Cc1c[nH]cn1)NC(=O)[C@H](CCCCN)NC(=O)[C@@H](Cc1c[nH]c2ccccc12)NC(=O)[C@H](CC(C)C)NC(=O)[C@H](CC(N)=O)NC(=O)[C@H](Cc1c[nH]cn1)NC(=O)[C@H](CCSC)NC(=O)[C@@H](N)Cc1ccccc1)C(=O)N[C@@H](CCC(=O)O)C(=O)N[C@@H](CCCNC(=N)N)C(=O)N[C@H](C(=O)N[C@@H](CCC(=O)O)C(=O)N[C@@H](Cc1c[nH]c2ccccc12)C(=O)N[C@@H](CC(C)C)C(=O)N[C@@H](CCCNC(=N)N)C(=O)N[C@@H](CCCCN)C(=O)N[C@@H](CCCCN)C(=O)N[C@@H](CC(C)C)C(=O)N[C@@H](CCC(N)=O)C(=O)N[C@@H](CC(=O)O)C(=O)N[C@H](C(=O)N[C@@H](Cc1c[nH]cn1)C(=O)N[C@@H](CC(N)=O)C(=O)N[C@@H](Cc1ccccc1)C(N)=O)C(C)C)C(C)C
EC50(+)inhibitor/EC50(-)inhibitor: 60.1 ratio
EC50 of PTH(1-34) signaling with 1 µM inhibitor: 9.47 nM

Reference: patent US20140378382A1 (WISCONSIN ALUMNI RESEARCH FOUNDATION, published 2014)
